One block for each molecule: values may come before it. No end group written: not given here.
Assays:
[1] = target: Arc(207-278) binding to TARPγ2 peptide (Rattus norvegicus, UniProt Q63053); details: Figure S5C; chlorpromazine data not shown
[2] = target: T1, RnArc (207-370), Arc GAG domain, wild type (rat, UniProt Q63053 207-370); assay: fluorescence polarisation
T1 sequence (looked up): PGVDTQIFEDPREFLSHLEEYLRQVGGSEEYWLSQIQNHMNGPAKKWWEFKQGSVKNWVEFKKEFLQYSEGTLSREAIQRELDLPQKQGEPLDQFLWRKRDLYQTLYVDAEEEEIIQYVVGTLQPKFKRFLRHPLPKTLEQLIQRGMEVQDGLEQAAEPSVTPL

[3] = target: T2, Arc N-lobe (207-277) (rat, UniProt Q63053 207-277); assay: pull-down
T2 sequence (looked up): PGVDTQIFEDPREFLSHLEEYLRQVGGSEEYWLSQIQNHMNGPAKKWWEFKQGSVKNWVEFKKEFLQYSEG

[4] = target: T1, RnArc (207-370), Arc GAG domain, wild …; assay: pull-down

Molecule: CN1CCN(CCCN2c3ccccc3Sc3ccc(C(F)(F)F)cc32)CC1 [Trifluoperazine]
inhibition of Arc N-lobe binding [1]: inhibited binding, but with lower affinity

B1: GST-TARPγ2 cytoplasmic tail (203-323) (domain or fragment, mouse, UniProt O88602 203-323, looked up)
chain: DRHKQLRATARATDYLQASAITRIPSYRYRYQRRSRSSSRSTEPSHSRDASPVGVKGFNTLPSTEISMYTLSRDPLKAATTPTATYNSDRDNSFLQVHNCIQKDSKDSLHANTANRRTTPV
binding result [2]: binds

Molecule: RTPVFV (peptide, UniProt Q8R5H6 315-320, looked up) [WAVE1 peptide (aa315-320)]
binding result [2]: binds

Second part, the molecule after the results:

binding result [3]: binds
Molecule: TGLIENRPQSPAAGRTPVFVSPTPPPPPPPLPSALSTSSLRAS (domain or fragment, mouse, UniProt Q8R5H6 301-343, looked up) [GST-WAVE1 (aa301-343)]

binding result [4]: binds
Molecule: {GST}-DRHKQLRATARATDYLQASAITRIPSYRYRYQRRSRSSSRSTEPS (domain or fragment, mouse, UniProt O88602 203-247, looked up) [GST-TARPγ2 fragment (203-247)]

From publication PMC4409568 (Neuron, 2015)
